This data set is described as follows: PHA synthetic enzyme activity (CoA release, 5,5'-dithiobis-(2-nitrobenzoic acid)). The format is biochemical. Particulars: purified enzymes, Table 1. An excerpt:
Measurement of activity of PHA synthetic enzyme may be performed by using various known methods. For example, the measurement may be performed by the following method that is based on a measuring principle in that CoA released during polymerization of 3-hydroxyacyl CoA by the catalytic action of PHA synthetic enzyme to obtain PHA forms a color with 5,5′-dithiobis-(2-nitrobenzoic acid). Reagent 1: bovine serum albumin (manufactured by Sigma) dissolved in 0.1 M Tris hydrochloride buffer (pH 8.0) 3.0 mg/ml; Reagent 2: 3-hydroxyoctanoyl CoA dissolved in 0.1 M Tris hydrochloride buffer (pH 8.0) in 3.0 mM; Reagent 3: Trichloroacetic acid dissolved in 0.1 M Tris hydrochloride buffer (pH 8.0) in 10 mg/ml; Reagent 4: 5,5′-dithiobis-(2-nitrobenzoic acid) dissolved in 0.1 M Tris hydrochloride buffer (pH 8.0) in 2.0 mM. First reaction (PHA synthesis reaction): 100 μl of Reagent 1 is added to 100 μl of a sample (enzyme) solution and mixed. […] 500 μl of Reagent 4 is added to 500 μl of the resultant supernatant and the resultant is incubated at 30° C. for 10 minutes and then measured for optical density (absorbance) at 412 nm. […]
The activity of each purified enzyme was measured according to the method described above. Further, protein concentration in the sample was determined using a micro BCA protein assay reagent kit (available from Pierce Chemical Inc.). […]

B1: Purified enzyme solution (2): purified PHA synthetic enzyme YN2-C1 from pYN2-C1 (protein)
chain: MSNKSNDELKYQASENTLGLNPVVGLRGKDLLASARMVLRQAIKQPVHSVKHVAHFGLELKNVLLGKSGLQPTSDDRRFADPAWSQNPLYKRYLQTYLAWRKELHDWIDESNLAPKDVARGHFVINLMTEAMAPTNTAANPAAVKRFFETGGKSLLDGLSHLAKDLVHNGGMPSQVNMGAFEVGKSLGVTEGAVVFRNDVLELIQYKPTTEQVYERPLLVVPPQINKFYVFDLSPDKSLARFCLRNNVQTFIVSWRNPTKEQREWGLSTYIEALKEAVDVVTAITGSKDVNMLGACSGGITCTALLGHYAAIGENKVNALTLLVSVLDTTLDSDVALFVNEQTLEAAKRHSYQAGVLEGRDMAKVFAWMRPNDLIWNYWVNNYLLGNEPPVFDILFWNNDTTRLPAAFHGDLIELFKNNPLIRPNALEVCGTPIDLKQVTADIFSLAGTNDHITPWKSCYKSAQLFGGNVEFVLSSSGHIQSILNPPGNPKSRYMTSTEVAENADEWQANATKHTDSWWLHWQAWQAQRSGELKKSPTKLGSKAYPAGEAAPGTYVHER
modifications: Pseudomonas cichorii YN2; FERM BP-7375
With B1, the Activity is 2.1 U/ml and the Relative activity was 4.1 U/mg protein.

These data come from US7527809B2, “Polyhydroxyalkanoate-containing magnetic structure, and manufacturing method and use thereof” (Canon Kabushiki Kaisha, priority 2003, dated 2009).
